Source: patent US20260216374

System: Human POU5F1B (HA-tagged, overexpressed in SW480 cells)

Chain of ZDHHC-17 palmitoyl transferase (chain, as listed by the source): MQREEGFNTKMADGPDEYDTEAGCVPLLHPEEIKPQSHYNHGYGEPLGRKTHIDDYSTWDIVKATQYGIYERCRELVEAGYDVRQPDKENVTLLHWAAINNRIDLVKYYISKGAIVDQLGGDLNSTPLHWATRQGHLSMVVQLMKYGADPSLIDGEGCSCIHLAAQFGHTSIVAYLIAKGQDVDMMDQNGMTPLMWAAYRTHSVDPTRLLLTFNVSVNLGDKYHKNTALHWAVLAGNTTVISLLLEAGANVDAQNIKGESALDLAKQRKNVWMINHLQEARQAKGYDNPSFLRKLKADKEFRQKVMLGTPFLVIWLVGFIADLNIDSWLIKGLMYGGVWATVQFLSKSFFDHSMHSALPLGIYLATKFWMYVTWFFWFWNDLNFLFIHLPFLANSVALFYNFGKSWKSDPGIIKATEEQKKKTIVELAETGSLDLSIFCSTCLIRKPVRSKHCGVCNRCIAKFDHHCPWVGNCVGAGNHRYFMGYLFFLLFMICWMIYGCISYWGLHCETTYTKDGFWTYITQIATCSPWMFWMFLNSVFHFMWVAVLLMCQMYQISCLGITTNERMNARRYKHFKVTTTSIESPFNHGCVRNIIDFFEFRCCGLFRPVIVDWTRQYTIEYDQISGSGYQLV

Substance: ZDHHC-17 palmitoyl transferase
- DRM association of POU5F1B upon ZDHHC-17 knockdown: POU5F1B dissociates from DRMs upon ZDHHC-17 knockdown
